From article PMC10127133, “Structural insights into a cooperative switch between one and two FimH bacterial adhesins binding pauci- and high-mannose type N-glycan receptors” (The Journal of Biological Chemistry, 2023)

B1: omega-1 (ω1) glycoprotein carrying Man3Gn2 (natural protein)
chain: QNRWDYYVFSVTWPPTYCESIQCRLPRGLRDFTIHGLWPTIFPNRQPNCTGSLRFDIRRLQGIRNELDLMWPHLKNYRESPSFWKHEFEKHGLCAVEDPQVFNQYGYFKFGIKLMQKLNLLKTLMKYKISPHDSRQYDTINLMNVLEREFGYNGSANCIRKPGRRGMYHLEEVHVCLNRKHEFMNCPFLGNCPKKFIFPPFQ
modifications: N-glycans Man3Gn2 (oligomannose-3, paucimannosidic); sites not stated
B2: omega-1 (ω1) glycoprotein carrying X1Man3Gn2F1[3] (natural protein)
chain: B1 chain
modifications: N-glycans X1Man3Gn2F1[3] (oligomannose-3 with β1,2-xylose on mannose 3 and α1,3 core fucose); sites not stated
B3: omega-1 (ω1) glycoprotein carrying Man3Gn2F1[6] (natural protein)
chain: B1 chain
modifications: N-glycans Man3Gn2F1[6] (α1,6 core-fucosylated oligomannose-3); sites not stated
B4: omega-1 (ω1) glycoprotein carrying Man3Gn2F1[3] (natural protein)
chain: B1 chain
modifications: N-glycans Man3Gn2F1[3] (α1,3 core-fucosylated oligomannose-3); sites not stated

biological target: T1, FimH lectin domain (residues Phe1-Thr158) (Escherichia coli, UniProt P08191 22-179); assay: SPR; single-cycle kinetics on BIAcore T200; ω1-glycoprotein immobilised on a CM5 chip via primary amino groups (EDC/NHS); FimH as analyte at 14.4, 7.17, 3.60, 1.80, 0.9 μM; 20 mM Hepes, 150 mM NaCl, 0.005% Tween; 30 μl/min; 298 K; fit to the Langmuir 1:1 model; conditions: both partners purified
T1 construct: FimH type-1 fimbrial adhesin of Escherichia coli, lectin domain, residues Phe1-Thr158; No tag is mentioned; also called FimH adhesin; source: E. coli C43(DE3), pET24a vector, purified (sulfopropyl fast flow cation exchange chromatography)
T1 sequence (P08191 22-179): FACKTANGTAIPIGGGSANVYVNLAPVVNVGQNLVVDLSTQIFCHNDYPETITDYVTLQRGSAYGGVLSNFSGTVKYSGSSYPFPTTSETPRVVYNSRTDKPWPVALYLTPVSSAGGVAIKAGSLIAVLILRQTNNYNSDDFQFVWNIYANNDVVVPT

How did the Kd turn out when B1 was run?
Its Kd is 33.6 nM.

What about the koff of the same binder?
Its koff is 0.00013 s⁻¹.

And the kon?
The kon was 3890 M⁻¹ s⁻¹.

Which results are given for B2?
Kd: 6000 nM; koff: 0.0015 s⁻¹; kon: 257 M⁻¹ s⁻¹

Which results are given for B3?
Kd: 134 nM; koff: 8.89e-05 s⁻¹; kon: 663 M⁻¹ s⁻¹

With B4 as the binder, how does the Kd read?
The Kd was 128 nM.

What about the koff of the same binder?
Its koff is 6.72e-05 s⁻¹.

And the kon?
The kon was 525 M⁻¹ s⁻¹.
